Data: patent US20150141335A1, “THERAPEUTIC USES OF FIBROBLAST GROWTH FACTOR 21 PROTEINS” (Eli Lilly and Company, published 2015)

Tests used:
wild type mouse βKlotho = biological target: T1, wild type mouse βKlotho (mouse, UniProt Q99N32); test: cell-based or functional assay
T1 sequence: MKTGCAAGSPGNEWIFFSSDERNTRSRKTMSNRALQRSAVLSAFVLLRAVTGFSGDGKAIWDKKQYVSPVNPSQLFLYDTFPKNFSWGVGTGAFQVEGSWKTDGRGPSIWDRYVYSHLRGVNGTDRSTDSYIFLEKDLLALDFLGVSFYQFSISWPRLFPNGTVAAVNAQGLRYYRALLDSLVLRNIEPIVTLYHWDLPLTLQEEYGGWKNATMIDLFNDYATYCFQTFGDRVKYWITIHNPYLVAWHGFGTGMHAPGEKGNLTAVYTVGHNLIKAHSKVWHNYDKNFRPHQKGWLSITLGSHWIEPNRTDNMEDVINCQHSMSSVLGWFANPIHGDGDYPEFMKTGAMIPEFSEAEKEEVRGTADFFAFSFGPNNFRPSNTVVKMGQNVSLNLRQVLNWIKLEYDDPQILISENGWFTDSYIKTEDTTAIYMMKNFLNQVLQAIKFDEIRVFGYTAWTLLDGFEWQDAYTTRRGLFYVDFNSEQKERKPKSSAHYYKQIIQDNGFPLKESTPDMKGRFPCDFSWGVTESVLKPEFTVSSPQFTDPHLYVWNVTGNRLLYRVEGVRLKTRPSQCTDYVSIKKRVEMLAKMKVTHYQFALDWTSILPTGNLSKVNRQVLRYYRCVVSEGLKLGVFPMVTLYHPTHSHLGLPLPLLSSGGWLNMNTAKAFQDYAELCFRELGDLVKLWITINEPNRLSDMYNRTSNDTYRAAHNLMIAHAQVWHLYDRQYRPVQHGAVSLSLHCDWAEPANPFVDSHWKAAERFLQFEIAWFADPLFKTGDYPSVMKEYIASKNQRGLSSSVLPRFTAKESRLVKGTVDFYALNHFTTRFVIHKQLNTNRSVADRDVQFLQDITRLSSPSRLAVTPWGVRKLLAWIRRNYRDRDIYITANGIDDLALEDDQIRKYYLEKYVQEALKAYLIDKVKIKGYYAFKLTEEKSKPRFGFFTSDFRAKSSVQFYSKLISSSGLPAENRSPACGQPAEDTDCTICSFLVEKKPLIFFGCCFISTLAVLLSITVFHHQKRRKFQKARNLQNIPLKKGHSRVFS

human βKlotho = human βKlotho (human, UniProt Q86Z14); test: cell-based or functional assay

glucose uptake (2-deoxy-D-(14C) glucose) in 3T3-L1-βKlotho fibroblasts, in vitro potency (EC50) (wild type mouse βKlotho): 26 pM | SRE driven luciferase in 293-βKlotho-SRE luc cells, in vitro potency (EC50) (human βKlotho): 250 pM
B1: FGF21 protein of SEQ ID NO: 1 (ligand)
chain: HPIPDSSPLLQFGGQVRQRYLYTDDAQQTECHLEIREDGTVGCAADQSPESLLQLKALKPGVIQILGVKTSRFLCQRPDGALYGSLHFDPEACSFREDLLEDGYNVYQSEAHGLPLHLPGDKSPHRKPAPRGPARFLPLPGLPPALPEPPGILAPQPPDVGSSDPLRLVEPSQLLSPSFLG
